Test results published in US20040132160A1 (University of Texas, published 2004).

Tests used:
[1] = target: T1, full-length MURF-1 with C-terminal myc tag (murine, UniProt Q9ERP3 1-366); experiment: co-immunoprecipitation of 35S-labeled in vitro translated myc-tagged and Flag-tagged MURF-1 with Flag antibody M2
T1 construct: Expressed in transfected cells (Hela, Cos, 293T and others) or translated in vitro with 35S-methionine; also called myc-tagged MURF-1; myc-tagged MURF; not shown: C-terminal myc/HIS tag of vector pcDNA3.1 myc/HIS (Invitrogen)
T1 sequence: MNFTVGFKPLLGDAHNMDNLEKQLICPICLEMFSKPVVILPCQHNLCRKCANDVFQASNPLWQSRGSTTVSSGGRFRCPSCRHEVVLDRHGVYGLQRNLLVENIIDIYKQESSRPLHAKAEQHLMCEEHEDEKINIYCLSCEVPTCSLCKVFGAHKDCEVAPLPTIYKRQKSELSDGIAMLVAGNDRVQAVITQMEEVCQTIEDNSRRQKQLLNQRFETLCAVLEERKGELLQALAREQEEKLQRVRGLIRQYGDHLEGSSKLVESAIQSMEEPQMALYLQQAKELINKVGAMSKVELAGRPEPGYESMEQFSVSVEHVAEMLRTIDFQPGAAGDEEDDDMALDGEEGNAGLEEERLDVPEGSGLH
Text: (§1) FIGS. 6A-6D—Mapping domains of MURF-1 required for homo-oligomerization. FIG. 6A. Various forms of N-terminal Flag-tagged MURF-1 and full-length C-terminal myc-tagged MURF-1 were in vitro translated in the presence of ³⁵S-methionine and immunoprecipitation performed as described in Material and Methods. The leucine-rich coiled-coil domain mediates homo-oligomerization of MURF-1. FIGS. 6B-D. MURF-1 binds to microtubules in a homo-oligomeric form. Hela Cells were transfected with Flag-tagged full-length MURF alone (FIG. 6B) or in combination with myc-tagged MURF-1 (FIGS. 6C and 6D) and immunofluorescence performed. Flag-tagged MURF-1 forms aggregates in the cytoplasm of the cell. In the presence of myc-tagged MURF-1, the Flag-tagged MURF-1 and myc-tagged MURF-1 are colocalized in filamentous structures in the cell. Identical results were obtained using native MURF-1 lacking an epitope tag.
In vitro transcription/translation was performed as directed by the manufacturer (Promega). Plasmids used were C-terminally myc-tagged full-length MURF-1 and various Flag-tagged deletions of MURF-1. Immunoprecipitations were performed using ³⁵S-methionine-labelled in vitro translation products. Briefly, ³⁵S-methionine-labelled products were incubated with agitation in 1 ml of immunoprecipitation buffer (PBS, 0.5% Triton X-100, 0.25 mM zinc sulphate) at 4° C. for 2 hours. […]

[2] = target: T2, MURF-1 (Muscle RING Finger 1), native protein without epitope tag (murine, UniProt Q9ERP3 1-366); experiment: immunofluorescence in cotransfected Hela cells, legend of FIGS. 6B-D
T2 construct: 366 amino acid protein, 41 kDa; also called endogenous MURF-1; native MURF-1
T2 sequence: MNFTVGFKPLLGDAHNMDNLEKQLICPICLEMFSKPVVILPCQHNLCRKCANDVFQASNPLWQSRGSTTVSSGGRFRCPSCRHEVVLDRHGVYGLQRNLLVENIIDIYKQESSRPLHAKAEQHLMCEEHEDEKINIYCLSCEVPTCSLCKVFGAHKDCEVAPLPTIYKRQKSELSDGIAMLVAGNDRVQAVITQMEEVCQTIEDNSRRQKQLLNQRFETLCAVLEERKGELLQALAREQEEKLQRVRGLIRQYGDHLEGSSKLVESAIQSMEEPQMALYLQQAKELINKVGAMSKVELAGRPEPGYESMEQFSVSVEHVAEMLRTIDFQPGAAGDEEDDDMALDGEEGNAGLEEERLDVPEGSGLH
Text: as §1, with “The” for “FIGS. 6A-6D—Mapping domains of MURF-1 required for homo-oligomerization. FIG. 6A. Various forms of N-terminal Flag-tagged MURF-1 and full-length C-terminal myc-tagged MURF-1 were in vitro translated in the presence of ³⁵S-methionine and immunoprecipitation performed as described in Material and Methods. The”
For immunofluorescence, cells were extracted with 1% Triton X-100 in PBS for 1 minute, washed twice in PBS, and fixed for 15 minutes in 3.7% formalin in PBS. Cells were then washed three times in PBS and blocked in PBS containing 3% Bovine Serum Albumin and 0.1% NP40 for 30 minutes. All antibodies were incubated in fresh block solution for 60 minutes at ambient temperature. Myc-tagged versions of MURF-1 were detected using antibody 9E10 (Santa Cruz) at a dilution of 1:250. Flag-tagged versions of MURF-1 were detected using the M2 Flag antibody at a dilution of 1:500 (Kodak). Microtubules were detected using alpha-tubulin antibody at a dilution of 1:2000 (Sigma). Intermediate filaments were visualized using vimentin antibody at a dilution of 1:500 (Sigma). […]

binding result [1]: binds
binding result [2]: binds
B1: full-length MURF-1 with N-terminal Flag tag (other)
chain: MNFTVGFKPLLGDAHNMDNLEKQLICPICLEMFSKPVVILPCQHNLCRKCANDVFQASNPLWQSRGSTTVSSGGRFRCPSCRHEVVLDRHGVYGLQRNLLVENIIDIYKQESSRPLHAKAEQHLMCEEHEDEKINIYCLSCEVPTCSLCKVFGAHKDCEVAPLPTIYKRQKSELSDGIAMLVAGNDRVQAVITQMEEVCQTIEDNSRRQKQLLNQRFETLCAVLEERKGELLQALAREQEEKLQRVRGLIRQYGDHLEGSSKLVESAIQSMEEPQMALYLQQAKELINKVGAMSKVELAGRPEPGYESMEQFSVSVEHVAEMLRTIDFQPGAAGDEEDDDMALDGEEGNAGLEEERLDVPEGSGLH
notes: Translated in vitro with 35S-methionine for immunoprecipitation, or expressed in Hela cells; also called Flag-tagged MURF-1; Flag-MURF-1; not shown: N-terminal Flag tag (vector pECE-Flag, subcloned into pcDNA3.1)
